Test results reported in US6468985B1, “Retinoblastoma protein-interacting zinc finger proteins” (The Burnham Institute, priority 1994, dated 2002).

Experiments:
[1] = biological target: T1, wild-type Rb (Homo sapiens, UniProt P06400); test: binding of GST-RIZ (245-573) to 35S-labeled Rb, immunoprecipitation with anti-RIZ antiserum
T1 construct: Wild-type (wt) full length Rb (A9); made in house; host or cells: in vitro transcription/translation
T1 sequence (P06400 1-928): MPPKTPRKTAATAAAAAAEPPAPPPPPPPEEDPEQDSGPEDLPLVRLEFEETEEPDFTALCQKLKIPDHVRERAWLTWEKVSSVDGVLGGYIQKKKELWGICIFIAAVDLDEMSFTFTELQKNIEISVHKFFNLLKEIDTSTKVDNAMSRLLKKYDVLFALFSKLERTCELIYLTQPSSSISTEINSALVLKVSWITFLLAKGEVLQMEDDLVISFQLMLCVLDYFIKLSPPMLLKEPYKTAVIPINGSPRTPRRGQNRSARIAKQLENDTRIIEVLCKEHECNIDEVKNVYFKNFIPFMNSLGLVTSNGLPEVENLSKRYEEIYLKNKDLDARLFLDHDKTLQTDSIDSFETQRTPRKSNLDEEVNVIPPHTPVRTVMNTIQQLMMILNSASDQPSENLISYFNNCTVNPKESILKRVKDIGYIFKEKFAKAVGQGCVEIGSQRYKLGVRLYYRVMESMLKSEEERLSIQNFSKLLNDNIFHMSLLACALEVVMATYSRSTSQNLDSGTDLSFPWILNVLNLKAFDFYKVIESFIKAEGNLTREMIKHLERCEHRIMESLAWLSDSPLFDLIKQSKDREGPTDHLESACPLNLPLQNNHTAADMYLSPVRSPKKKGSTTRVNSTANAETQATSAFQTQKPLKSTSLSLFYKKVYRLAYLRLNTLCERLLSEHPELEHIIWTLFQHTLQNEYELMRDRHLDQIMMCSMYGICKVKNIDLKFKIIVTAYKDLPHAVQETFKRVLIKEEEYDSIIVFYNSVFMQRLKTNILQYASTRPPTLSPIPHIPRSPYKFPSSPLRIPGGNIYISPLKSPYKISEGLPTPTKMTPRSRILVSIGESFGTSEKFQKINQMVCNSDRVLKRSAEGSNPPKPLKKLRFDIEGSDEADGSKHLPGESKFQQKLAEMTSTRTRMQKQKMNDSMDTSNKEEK
Description: (§1) The 56 kD Rb fragment that binds to RIZ is a C-terminal fragment containing the Rb pocket binding region and a C-terminal extension. To further define the portion of 56 kD Rb that binds to RIZ, several Rb mutant polypeptides were tested for binding to RIZ. Mutant and full length Rb were cloned and in vitro transcribed/translated as described previously (Huang et al., supra, 1990). H209 is a point mutation resulting in a single amino acid change in Rb that was identified in the small cell lung cancer H209 cell line (American Type Culture Collection (ATCC) #HTB 172). The various Rb forms were tested for binding to glutathionine S-transferase (GST) fused to a fragment of RIZ from amino acid position 245-573 (GST-RIZ (245-573)). This RIZ fragment contains all of the E1A motifs related to binding Rb and was constructed by cloning a Stu I-Hpa I RIZ fragment (nucleotide 795-3068) into vector pBSK+ to make pBSK+SH. An Eco RI fragment was removed from pBSK+SH and ligated into pGEX-KG to produce vector pKG7.1S containing GST-RIZ (245-573).
(§2) The binding between purified GST-RIZ (245-573) and the above radiolabeled Rb wild-type and deletion mutants was determined by immunoprecipitation with an anti-RIZ antiserum followed by SDS-PAGE and autoradiography. […]

[2] = test system: rat ovary genomic DNA; test: filter-based DNA-binding assay
Excerpt: To evaluate whether the zinc finger domains of RIZ can bind to DNA, the RIZ finger motifs 1 to 3 from amino acid position 245-573 or finger 4 to 6 from amino acid position 1114-1260 were expressed as GST fusion proteins, GSTZ13 and GSTZ46, respectively. The GST-RIZ fragments were purified by glutathionine agarose chromatography (Guan and Dixon, Anal. Biochem. 192:262-267 (1991), which is incorporated herein by reference) and evaluated for binding in a filter-based DNA-binding assay (Sukegawa and Blobel, Cell 72:29-38 (1993), which is incorporated herein by reference). To obtain GSTZ46, a fragment encoding RIZ (1114-1260) was made by PCR using primers 5′-GTGGTCCAAG AAACATTC-3′ (SEQ ID NO: 17) and 5′-TCGTGTAAAG CTCTTCAG-3′ (SEQ ID NO: 18) and pCMVRIZ as template. The PCR fragment was cloned into pBKS+, then into pGEX-KG (Guan and Dixon, supra, 1991).
The filter-based DNA binding assay was performed by electrophoresing 0.5 μg of purified GST or GST-RIZ fusion proteins by SDS-PAGE and transferring the proteins to nitrocellulose. The proteins were renatured by incubating the nitrocellulose for 3 hr in binding buffer (50 mM Tris-HCl, pH 8, 100 mM KCl, 0.1% Triton X-100™, 10% glycerol, and 0.1 mM ZnCl2). ^32P-labeled, randomly sheared rat ovary genomic DNA was added to the buffer and the nitrocellulose was incubated for an additional 3 hr. […]

[3] = test system: Rb having a deletion within the pocket; test: binding of GST-RIZ (245-573) to 35S-labeled Rb pocket deletion mutants, immunoprecipitation with anti-RIZ antiserum
Description: as §1, §2

B1: GST-RIZ (245-573): glutathionine S-transferase fused to RIZ fragment a.a. 245-573 containing zinc fingers 1-3 (protein)
chain: CEPQPEVDGKQEVTDCEVNDVEEEELEEEEELEEEEEEELGEDGVEEADMPNESSAKEPEIRCEEKPEDLLEEPQSMSNEAREDSPDVTPPPHTPRAREEANGDVLETFMFPCQHCERKFATKQGLERHMHIHISTINHAFKCKYCGKRFGTQINRRRHERRHETGLKRRPSMTLQSSEDPDDGKGENVTSKDESSPPQLGQDCLILNSEKTSQEVLNSSFVEENGEVKELHPCKYCKKVFGTHTNMRRHQRRVHERHLIPKGVRRKGGLLEEPQPPAEQAPPSQNVYVPSTEPEEEGETDDVYIMDISSNISENLNYYIDGKIQTNSS
modifications: left off: a dimerising Fc or GST
For B1, the “binding to wild-type Rb” value [1] was “showed binding”, the “binding to 32P-labeled rat DNA” value ([2]; 0.5 μg protein, binding buffer with 0.1 mM ZnCl2) was “bound” and the “zinc dependence of DNA binding” value ([2]; with ZnCl2 versus 10 mM EDTA, 2 mM DTT and no ZnCl2) was “Zn^++ ion dependent manner”. For the same molecule, the “binding to three forms of Rb having a deletion within the pocket” value [3] was “failed to bind”.
